Test results: patent US6866854

Target: p53 (UniProt P04637)
Assay: cell-based or functional assay

p53, sequence (P04637 whole entry): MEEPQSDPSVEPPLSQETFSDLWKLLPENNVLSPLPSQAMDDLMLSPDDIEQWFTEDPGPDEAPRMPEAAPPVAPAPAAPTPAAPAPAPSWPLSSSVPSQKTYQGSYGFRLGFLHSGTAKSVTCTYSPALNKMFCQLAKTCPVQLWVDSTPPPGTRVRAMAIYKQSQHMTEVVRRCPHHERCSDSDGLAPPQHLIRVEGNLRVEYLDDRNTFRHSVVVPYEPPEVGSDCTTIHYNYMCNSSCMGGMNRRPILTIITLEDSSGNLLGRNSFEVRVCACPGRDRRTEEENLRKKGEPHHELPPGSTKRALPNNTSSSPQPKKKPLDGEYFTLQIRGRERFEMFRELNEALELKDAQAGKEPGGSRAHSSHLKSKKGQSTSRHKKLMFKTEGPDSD

Kaposi's sarcoma-associated herpesvirus latency-associated nuclear antigen 2 (LANA2) (from UniProt F5HIC6 1-566)
inhibition of doxorubicin-induced (endogenous p53) activation of the pG13-Luc reporter in U2OS cells: 57%
inhibition of p53 activation of the pG13-Luc reporter in SAOS-2 cells: 87%
subdiploid (apoptotic) fraction of SAOS-2 cells expressing p53 with LANA2, propidium iodide flow cytometry: 10.8%
